According to paper PMC3971370 (Molecular plant, 2012):

Biological target: nCFP–CPK3 (Arabidopsis thaliana, UniProt Q42479 1-529)
Test: split reporter

nCFP–CPK3, sequence (Q42479 whole entry): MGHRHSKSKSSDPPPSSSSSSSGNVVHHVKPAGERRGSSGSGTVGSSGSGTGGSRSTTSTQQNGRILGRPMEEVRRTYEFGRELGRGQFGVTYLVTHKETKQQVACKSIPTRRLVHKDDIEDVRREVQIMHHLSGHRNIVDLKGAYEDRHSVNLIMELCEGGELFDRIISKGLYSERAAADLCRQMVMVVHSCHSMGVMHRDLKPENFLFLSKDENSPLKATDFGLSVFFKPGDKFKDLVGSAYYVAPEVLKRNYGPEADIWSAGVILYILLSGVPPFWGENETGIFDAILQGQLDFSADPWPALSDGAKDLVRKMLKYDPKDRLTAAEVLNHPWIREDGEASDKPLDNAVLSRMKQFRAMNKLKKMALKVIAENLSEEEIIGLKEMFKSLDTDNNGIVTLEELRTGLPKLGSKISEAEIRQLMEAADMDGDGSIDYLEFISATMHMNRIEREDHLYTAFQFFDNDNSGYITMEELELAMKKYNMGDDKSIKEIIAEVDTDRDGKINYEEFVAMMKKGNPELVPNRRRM

BiFC signal relative to wild-type TPK1: ~0.5 fold of wild type
B1: cCFP–TPK1–R35A/R39A (natural protein)
chain: MSSDAARTPLLPTEKIDTMAQDFNLNSRTSSSRKARLRASRSAPRGDCMYNDDVKIDEPPPHPSKIPMFSDLNPNLRRVIMFLALYLTIGTLCFYLVRDQISGHKTSGVVDALYFCIVTMTTVGYGDLVPNSSASRLLACAFVFSGMVLVGHLLSRAADYLVEKQEALLVRAFHLRQSFGPTDILKELHTNKLRYKCYATCLVLVVLFIVGTIFLVMVEKMPVISAFYCVCSTVTTLGYGDKSFNSEAGRLFAVFWILTSSICLAQFFLYVAELNTENKQRALVKWVLTRRITNNDLEAADLDEDGVVGAAEFIVYKLKEMGKIDEKDISGIMDEFEQLDYDESGTLTTSDIVLAQTTSQIQR
